This data set can be described thus: yeast display, Sf9 membrane polyspecificity reagent, FACS + sequencing; frameworks hold sequencing errors. The gist of the method: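 Nanobodies came from a synthetic yeast display library in Saccharomyces cerevisiae BJ5465, induced with galactose for 36–48 hours and stained for 1 hour at 4 °C with 10% biotinylated, detergent-solubilized Sf9 membrane reagent. Cells were enriched on streptavidin microbeads and then FACS-sorted, with low and high (top ~1%) gates set on anti-HA fluorescence for expression and streptavidin fluorescence for reagent binding. Each polyreactivity label reflects the gate a clone came from. Genes were amplified by colony PCR, sequenced by MiSeq 2 × 250 and filtered by CDR length.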
For “QVQLVESGGGLVQAGGSLRLSCAASGSTFVSNAMGWYRPAPGKERELVASISQSGGGTDYADSVKGRFTISRDNAKNTVYLQMNSLKPEDTAVYYCAADRVPVQAPYDYWGQGTQVTVSS”, the “polyreactivity (PSR sort gate)” value is “high polyreactivity”.

With “QVQLVESGGGLVQAGGSLRLSCAASGSTFVSNAMGWYRQAPGKERELVATITTSGGSTYYADSVKGRFTISRDNAKNTVYLQMNSLKPEDTAVYYCNADYDFNFIDWVYFLYDYWGQGTQVTVSS”, the “polyreactivity (PSR sort gate)” value is “low polyreactivity”. As for “QVQLVESGGGLVQAGGSLRLSCAASGSTFVSNAMGWYSQAPGKERELVAAISSSDDSTYYADSVKGRFTLSRDKAKNTVYLQMISLKPEDTAVYYCAAESDSDQHDGDYWGQGTQVTVSS”, the “polyreactivity (PSR sort gate)” value was “low polyreactivity”. As for “QVQLVESGGGLVQAGGSLRLSCAASGSTFVSYAMGWSRQAPGKERELVAAISISDSSTYYADSVKGRFTISRDNAKNTVFLQMNSLKPEDTAVYYCNRYDYWGQGTQVTVSS”, the “polyreactivity (PSR sort gate)” value is reported as “low polyreactivity”. Then “QVQLVESGGGLVQAGGSLRLSCAASGSTFVSYAMGWYRQAPGKEREFVAAITWSGGSTYYADSVKGRFTISRDNAKNTVYLQMNSLKPEDTAVYDCAAATYRQQWHYYWGQGTQVTVSS”, with “high polyreactivity”. Then “QVQLVESGGGLVQAGGSLRLSCAASGSTFVSYAMGWYRQAPGKERELVAAIRTTSGSTYYADSVKGRFTISRDNAKNTVYLQMNSLKPEDTAVYYCAAAGRGPSFRRYDYWGQGTQVTVSS”, with “high polyreactivity”. Turning to “QVQLVESGGGLVQAGGSLRLSCAASGSTFVSYAMGWYRQAPGKERELVAAISISDSSTYYADSVKGRFTISRDNAKKTVYLQMNSLKPEDTAVYYCNRYDYWGQGTQVTVSS”, the “polyreactivity (PSR sort gate)” value is listed as “low polyreactivity”. For “QVQLVESGGGLVQAGGSLRLSCAASGSTFVSYAMGWYRQAPGKERELVAAISTSGGTTYYADSVKGRFTISRDNAKNTVYLQMNSLKPEDTAVYYCAAYDFKYKGYDYWGQGTQVTVSS” the value was “high polyreactivity”; for “QVQLVESGGGLVQAGGSLRLSCAASGSTFVSYAMGWYRQAPGKEREMVASISSGDSTYADSVKGRFTISRDNAKNTVYLQMNSLKREDTAVYYCNVGNEGSYGFPVTYDYWGQGSQVTVSS”, “low polyreactivity”.

As to “QVQLVESGGGLVQAGGSLRLSCAASGSTFVSYVMGWYRQAHGKERELVATSSGRAGRTYYADSVKGRFTISRDNAKNTVSLQMNSLKPEDTAVYYCNAGQWRYPGLYYYWGQATQVTVSS”, the “polyreactivity (PSR sort gate)” value was “high polyreactivity”.

With “QVQLVESGGGLVQAGGSLRLSCAASGSTFVTNAMGWYRQAPGKERELVAAITSGAGTYYADSVKGRFTISRDNAKNTVYLQMNSLKPEDTAVYYCAARRYYSRGRYRFGYWGQGTQVTVSS”, the “polyreactivity (PSR sort gate)” value is reported as “high polyreactivity”. Then “QVQLVESGGGLVQAGGSLRLSCAASGSTFVTNDMGWYRQAPAKERELVAAISSGTSTNYADSVKGRFTISRDNAKNTVYLQMNSLKPEDTAVYYCAADSLKRYDYWGHGTQVTVSS”, with “low polyreactivity”; and “QVQLVESGGGLVQAGGSLRLSCAASGSTFVTYAMGWYRQAPGKERELVAAIDSGGNTNYADSVKGRFTISRDNAKNTVYLQMNSLKPEDTAVYYCAVRPYELNRLDDQPGGDDYWGQGTQVTVSS”, with “low polyreactivity”. As for “QVQLVESGGGLVQAGGSLRLSCAASGSTFVTYAMGWYRQAPGKERELVATITTSGGSTYYADSVKGRFTISRDNAKNTVYLQMNSLKPEDTAVYYCAADYYSNYSRFDYWGQGTQVTVSS”, the “polyreactivity (PSR sort gate)” value is “low polyreactivity”.

Consider “QVQLVESGGGLVQAGGSLRLSCAASGSTFVVNAMGWYRQAPGKERELVAAIRGSAGSTYYADSVKGRFTISRDNAKNTVYLQMNSLKPEDTAVYYCAAYYRRYKSKYDYWGQGTQVTVSS”, for which the “polyreactivity (PSR sort gate)” value is listed as “high polyreactivity”.

For “QVQLVESGGGLVQAGGSLRLSCAASGSTFVVNAMGWYRQAPGKERELVAAIRIIGGSTYYADSVKGRFTISRDNAKNTVYLQMKSLKPEDTAVYYCVYSGYFPHQSKMDYWGQGTQVTVSS”, the “polyreactivity (PSR sort gate)” value is “low polyreactivity”.

As for “QVQLVESGGGLVQAGGSLRLSCAASGSTFVVNAMGWYRQAPGKERELVAAITQSGGSTFYADSVKGRFTISRDNAKNTVYLQINSLKPEDTAVYYWGQCTQVTVSS”, the “polyreactivity (PSR sort gate)” value was “low polyreactivity”. For the sequence “QVQLVESGGGLVQAGGSLRLSCAASGSTFVVYAMGWSRQAPGKERELVAAISTSDTSTYYADSVKGRFTISRDNAKNTVYLQMNSLKPEDTAVYYCAADGTYVYINEYEYWGQGTQVTVSS”, the “polyreactivity (PSR sort gate)” value was “low polyreactivity”. “QVQLVESGGGLVQAGGSLRLSCAASGSTFVWNAMGWYRQAPGQERELVAAITWSGGSTYYADSVKGRFTISRDNAKNTVYLQMNSLIPEDTAVYYGNAGPVVRRWDAVGYDYWGQGTQVTVSS”: the “polyreactivity (PSR sort gate)” value was “low polyreactivity”.

Turning to “QVQLVESGGGLVQAGGSLRLSCAASGSTFVYNAMGWYRQAPGKEREFVAVINWSGGRTYADSVKGRFTISRDNAKNTVYLQMNSLKPEDTAVYYCNARRRTGYRPAMDYWGQGTQVTVSS”, the “polyreactivity (PSR sort gate)” value is “high polyreactivity”.

For “QVQLVESGGGLVQAGGSLRLSCAASGSTFVYNAMGWYRQAPGKERELVAAIRTTGTGTYYADSVKGRFTISRDNAKNTVYLQMNSLKPEDTAVYYCATDYNYWKLDFGYWGQGTQVTVSS”, the “polyreactivity (PSR sort gate)” value was “high polyreactivity”. For “QVQLVESGGGLVQAGGSLRLSCAASGSTFVYNAMGWYRQAPGKERELVAAITNSGSTYYADSVKGRFTISRDNAKNTVYLQMNSLKPEDTAVYDCAARSRVYWARSGYWGQGTQVTVAS”, the “polyreactivity (PSR sort gate)” value is given as “low polyreactivity”. For the sequence “QVQLVESGGGLVQAGGSLRLSCAASGSTFVYYAMGSYIQAPGKERELVAAISSGGNTKYADSVKGRFTISRDNAMNTVYLHMNRLKPEDTAVYYCARETQSYFDHDYWGQGTQVTVSS”, the “polyreactivity (PSR sort gate)” value was “low polyreactivity”. With “QVQLVESGGGLVQAGGSLRLSCAASGSTFVYYAMGWYRKAPGKERELVAAITSSGGSTHYADSVKGRFTISRDNAKNTVYLQMNSLKPEDTAVYYCAVGALGVYGHYGYWGQGTQVTVSS”, the “polyreactivity (PSR sort gate)” value is on record as “low polyreactivity”. For “QVQLVESGGGLVQAGGSLRLSCAASGSTFVYYAMGWYRQAPGKEREFVAAINGGGRTNYADSVKGRFTISRDNAKNTVYLQMNSLKPEDTAVYDCAADGLSNVRQMDYWGQGTQVTVSS” the value was “low polyreactivity”.

As for “QVQLVESGGGLVQAGGSLRLSCAASGSTFVYYAMGWYRQAPGKEREFVAGISRSGGSTYYADSVKGRFTISRDNAKNTVYLQMNSLIPEDTAVYYCNARGGLPKYGYWGQGTQVTVSS”, the “polyreactivity (PSR sort gate)” value is listed as “high polyreactivity”. For “QVQLVESGGGLVQAGGSLRLSCAASGSTFVYYAMGWYRQAPGKERELVAAIRYSGASTYYADSVKGRFTISRDNAKNTVYLQMNSLKPEDTAVYYCAASSRTFGYKYYYWGQGTQVTVSS” the value was “high polyreactivity”; for “QVQLVESGGGLVQAGGSLRLSCAASGSTFVYYAMGWYRQAPGKERELVAASTYADSVKGRFTISRDNAKNTVYLQMNSLKPEDTAVYYCAADFVSAYFTIYDYWGQGTQVTVSS”, “low polyreactivity”. Take “QVQLVESGGGLVQAGGSLRLSCAASGSTFVYYAMGWYRQAPGKERELVAVISDDGGTYYADSVKGRFTISRDNAKNTVYLQMNSLKPEDTAVYYCAADPYWFFPHYDSWGQGTQVTVSS”: the “polyreactivity (PSR sort gate)” value was “low polyreactivity”. Turning to “QVQLVESGGGLVQAGGSLRLSCAASGSTFVYYAMVWYRQAPGKERELVAAITGSVDSTYYADSVKGRFTISRDNAKNTVYLQMNSVKPEDTAVYYCAADTYSTYWGQGTQVTVSS”, the “polyreactivity (PSR sort gate)” value was “low polyreactivity”. For “QVQLVESGGGLVQAGGSLRLSCAASGSTFVYYDMGWFRQAPGKERELVASISWSGGSTRYADSVKGRFTISRDNAKNTVYLQMNSLKPEDTAVYYCNKSNPDYDGLAIHAFDYWGQGTQVTVSS” the value was “low polyreactivity”; for “QVQLVESGGGLVQAGGSLRLSCAASGSTFVYYDMGWYRQAPGKERELVAAITGSVDSTYYADSVKGRFTISRDNAKNTVYLQMNSLKPEDTAVYYCAADTYSTYWGQGTQVTVSS”, “low polyreactivity”. For “QVQLVESGGGLVQAGGSLRLSCAASGSTFVYYDMGWYRQAPGQERELVATINGSGSRTNYADSVKGRFTISRDYAKNTVYLQMNSLKPEDTAVYYCAADYISYLVAGGYEDDYWGQVTQVTVSS” the value was “low polyreactivity”; for “QVQLVESGGGLVQAGGSLRLSCAASGSTFVYYTMGWYRQAPGKERELVAAINNGGSTYYADSVKGRFTISRDNAKNTVYLQMNSLKPEDTAFYYCARFTSRVSKYYWGQGSQVTVSS”, “low polyreactivity”. Then “QVQLVESGGGLVQAGGSLRLSCAASGSTFVYYVMGWYRQAPGKERELVAAISWSDDSTYYADSVKGRFTISRDNAKNTVYLQMNSLKAEDTAVYYCAATGYPFYTSGDIEYYYWGQGTQVTVSS”, with “low polyreactivity”; and “QVQLVESGGGLVQAGGSLRLSCAASGSTFWAYAMGWYRQAPGKERELVATITWSVGGTYYADSVKGRFTISRDNAKNTVYLQMNSLKPEDTAVYYCATDAYVKGVYEISEDRVDYWGQGTQVTVSS”, with “low polyreactivity”. For “QVQLVESGGGLVQAGGSLRLSCAASGSTFWEYAMGWYRQAPGKERELVAAITWSTGSTYYADSVKGRFTISRDNAKNTVYLQMNSLKPEDTAVYYCNVDWGYFYTTQGFDYWGQGTQVTVSS”, the “polyreactivity (PSR sort gate)” value is “high polyreactivity”. Regarding “QVQLVESGGGLVQAGGSLRLSCAASGSTFWFYAMGWYRQAPGKERELVAVISNSGSTYYADSVKGRFTISRDNAKNTVYLQMNSLKPEDTAVYYCNKDGGGDSYWYDYWGQATQVTVSS”, the “polyreactivity (PSR sort gate)” value was “low polyreactivity”. For “QVQLVESGGGLVQAGGSLRLSCAASGSTFWGNAMGWYRQAPGKERELVATITDGGSTNYADSVKGRFTISRDNAKNTVYLQMNSLKPEDTAVYYCNAEEHYNTYVLHFRPYYVRHDYWGQGTQVTVSS” the value was “low polyreactivity”. With “QVQLVESGGGLVQAGGSLRLSCAASGSTFWGYTMGWYRPAPGKERELVAAITGSGGSTNYADSVKGRFTISRDNAKNTVNLQMNSLKPEDTAVYYCAADVFTARRRYDYWGQGTQVTVSS”, the “polyreactivity (PSR sort gate)” value is “low polyreactivity”. On to “QVQLVESGGGLVQAGGSLRLSCAASGSTFWIYTMGWYRQAPGKERELVAAITWSGGRTYYADSVKGRFTISRDNAKNTVYLQMNSLKPEDTAVYYCNADVYSYRPSTIQRYVLFDYWGQGTQVTVSS”, for which the “polyreactivity (PSR sort gate)” value is recorded as “low polyreactivity”.

The values above are taken from the nanobody polyreactivity screen of Harvey et al. (2022).
